B1: LuUGT74S1 (Linum usitatissimum; H194S) (protein)
chain: MAGDEREKAHCLVVPAAAQGHFTPLLQFSKRLIPKRIRVTLALTRFIHSTMTVTAQSGIHIDTISDGFDHSGLILQDPEHYSQTFRRVGSETLTDLIRKQSESRHPVHCIIYDASMPWFLDVAKRFGIVGAAFLTQSCAVNAIYYHLREGTIKRPVVSDPAAGTLVIDGLPPLEVSDLPSFIWDDLHTEFLAASLRQFSNDGADWVFCNTVYQLELEAVDWLTKQWLINFRTIGPTIPSFYLDKQIPDDKDYDISIFNPQNQTCMNWLQSKPDGSVVYVSFGSLARLSPQQTEELYFGLKNSNHYFLWVVRESEVAKLPKEEYLSGEKGLVVSWCSQLQVLASGKVGCFVTHCGWNSTLEALSLGVPMVAMPECGDQLTNAKFIKDVWKTGVRAEADDGKGIMWGMIKREVIERCIREVMEGEETRRNADKWGKIIKEAVVEGGSSDKNTEDFATSLINFAETFQFSC
notes: N-terminal GST fusion (pGEX-4T-1, EcoRI/NotI), tag kept (eluted with glutathione); codon-optimised synthetic gene; E. coli BL21(DE3) pLysS
B2: LuUGT74S1 (Linum usitatissimum; Q136F) (protein)
chain: MAGDEREKAHCLVVPAAAQGHFTPLLQFSKRLIPKRIRVTLALTRFIHSTMTVTAQSGIHIDTISDGFDHSGLILQDPEHYSQTFRRVGSETLTDLIRKQSESRHPVHCIIYDASMPWFLDVAKRFGIVGAAFLTFSCAVNAIYYHLREGTIKRPVVSDPAAGTLVIDGLPPLEVSDLPSFIWDDLHTEFLAAHLRQFSNDGADWVFCNTVYQLELEAVDWLTKQWLINFRTIGPTIPSFYLDKQIPDDKDYDISIFNPQNQTCMNWLQSKPDGSVVYVSFGSLARLSPQQTEELYFGLKNSNHYFLWVVRESEVAKLPKEEYLSGEKGLVVSWCSQLQVLASGKVGCFVTHCGWNSTLEALSLGVPMVAMPECGDQLTNAKFIKDVWKTGVRAEADDGKGIMWGMIKREVIERCIREVMEGEETRRNADKWGKIIKEAVVEGGSSDKNTEDFATSLINFAETFQFSC
notes: as for B1
B3: LuUGT74S1 (Linum usitatissimum; Q136S) (protein)
chain: MAGDEREKAHCLVVPAAAQGHFTPLLQFSKRLIPKRIRVTLALTRFIHSTMTVTAQSGIHIDTISDGFDHSGLILQDPEHYSQTFRRVGSETLTDLIRKQSESRHPVHCIIYDASMPWFLDVAKRFGIVGAAFLTSSCAVNAIYYHLREGTIKRPVVSDPAAGTLVIDGLPPLEVSDLPSFIWDDLHTEFLAAHLRQFSNDGADWVFCNTVYQLELEAVDWLTKQWLINFRTIGPTIPSFYLDKQIPDDKDYDISIFNPQNQTCMNWLQSKPDGSVVYVSFGSLARLSPQQTEELYFGLKNSNHYFLWVVRESEVAKLPKEEYLSGEKGLVVSWCSQLQVLASGKVGCFVTHCGWNSTLEALSLGVPMVAMPECGDQLTNAKFIKDVWKTGVRAEADDGKGIMWGMIKREVIERCIREVMEGEETRRNADKWGKIIKEAVVEGGSSDKNTEDFATSLINFAETFQFSC
notes: as for B1
B4: LuUGT74S1 (Linum usitatissimum; Q136E) (protein)
chain: MAGDEREKAHCLVVPAAAQGHFTPLLQFSKRLIPKRIRVTLALTRFIHSTMTVTAQSGIHIDTISDGFDHSGLILQDPEHYSQTFRRVGSETLTDLIRKQSESRHPVHCIIYDASMPWFLDVAKRFGIVGAAFLTESCAVNAIYYHLREGTIKRPVVSDPAAGTLVIDGLPPLEVSDLPSFIWDDLHTEFLAAHLRQFSNDGADWVFCNTVYQLELEAVDWLTKQWLINFRTIGPTIPSFYLDKQIPDDKDYDISIFNPQNQTCMNWLQSKPDGSVVYVSFGSLARLSPQQTEELYFGLKNSNHYFLWVVRESEVAKLPKEEYLSGEKGLVVSWCSQLQVLASGKVGCFVTHCGWNSTLEALSLGVPMVAMPECGDQLTNAKFIKDVWKTGVRAEADDGKGIMWGMIKREVIERCIREVMEGEETRRNADKWGKIIKEAVVEGGSSDKNTEDFATSLINFAETFQFSC
notes: as for B1
B5: LuUGT74S1 (Linum usitatissimum; A17S) (protein)
chain: MAGDEREKAHCLVVPASAQGHFTPLLQFSKRLIPKRIRVTLALTRFIHSTMTVTAQSGIHIDTISDGFDHSGLILQDPEHYSQTFRRVGSETLTDLIRKQSESRHPVHCIIYDASMPWFLDVAKRFGIVGAAFLTQSCAVNAIYYHLREGTIKRPVVSDPAAGTLVIDGLPPLEVSDLPSFIWDDLHTEFLAAHLRQFSNDGADWVFCNTVYQLELEAVDWLTKQWLINFRTIGPTIPSFYLDKQIPDDKDYDISIFNPQNQTCMNWLQSKPDGSVVYVSFGSLARLSPQQTEELYFGLKNSNHYFLWVVRESEVAKLPKEEYLSGEKGLVVSWCSQLQVLASGKVGCFVTHCGWNSTLEALSLGVPMVAMPECGDQLTNAKFIKDVWKTGVRAEADDGKGIMWGMIKREVIERCIREVMEGEETRRNADKWGKIIKEAVVEGGSSDKNTEDFATSLINFAETFQFSC
notes: as for B1
B6: LuUGT74S1 (Linum usitatissimum; Y144F) (protein)
chain: MAGDEREKAHCLVVPAAAQGHFTPLLQFSKRLIPKRIRVTLALTRFIHSTMTVTAQSGIHIDTISDGFDHSGLILQDPEHYSQTFRRVGSETLTDLIRKQSESRHPVHCIIYDASMPWFLDVAKRFGIVGAAFLTQSCAVNAIFYHLREGTIKRPVVSDPAAGTLVIDGLPPLEVSDLPSFIWDDLHTEFLAAHLRQFSNDGADWVFCNTVYQLELEAVDWLTKQWLINFRTIGPTIPSFYLDKQIPDDKDYDISIFNPQNQTCMNWLQSKPDGSVVYVSFGSLARLSPQQTEELYFGLKNSNHYFLWVVRESEVAKLPKEEYLSGEKGLVVSWCSQLQVLASGKVGCFVTHCGWNSTLEALSLGVPMVAMPECGDQLTNAKFIKDVWKTGVRAEADDGKGIMWGMIKREVIERCIREVMEGEETRRNADKWGKIIKEAVVEGGSSDKNTEDFATSLINFAETFQFSC
notes: as for B1
B7: LuUGT74S1 (Linum usitatissimum; S115A) (protein)
chain: MAGDEREKAHCLVVPAAAQGHFTPLLQFSKRLIPKRIRVTLALTRFIHSTMTVTAQSGIHIDTISDGFDHSGLILQDPEHYSQTFRRVGSETLTDLIRKQSESRHPVHCIIYDAAMPWFLDVAKRFGIVGAAFLTQSCAVNAIYYHLREGTIKRPVVSDPAAGTLVIDGLPPLEVSDLPSFIWDDLHTEFLAAHLRQFSNDGADWVFCNTVYQLELEAVDWLTKQWLINFRTIGPTIPSFYLDKQIPDDKDYDISIFNPQNQTCMNWLQSKPDGSVVYVSFGSLARLSPQQTEELYFGLKNSNHYFLWVVRESEVAKLPKEEYLSGEKGLVVSWCSQLQVLASGKVGCFVTHCGWNSTLEALSLGVPMVAMPECGDQLTNAKFIKDVWKTGVRAEADDGKGIMWGMIKREVIERCIREVMEGEETRRNADKWGKIIKEAVVEGGSSDKNTEDFATSLINFAETFQFSC
notes: as for B1
B8: LuUGT74S1 (Linum usitatissimum) (protein)
chain: MAGDEREKAHCLVVPAAAQGHFTPLLQFSKRLIPKRIRVTLALTRFIHSTMTVTAQSGIHIDTISDGFDHSGLILQDPEHYSQTFRRVGSETLTDLIRKQSESRHPVHCIIYDASMPWFLDVAKRFGIVGAAFLTQSCAVNAIYYHLREGTIKRPVVSDPAAGTLVIDGLPPLEVSDLPSFIWDDLHTEFLAAHLRQFSNDGADWVFCNTVYQLELEAVDWLTKQWLINFRTIGPTIPSFYLDKQIPDDKDYDISIFNPQNQTCMNWLQSKPDGSVVYVSFGSLARLSPQQTEELYFGLKNSNHYFLWVVRESEVAKLPKEEYLSGEKGLVVSWCSQLQVLASGKVGCFVTHCGWNSTLEALSLGVPMVAMPECGDQLTNAKFIKDVWKTGVRAEADDGKGIMWGMIKREVIERCIREVMEGEETRRNADKWGKIIKEAVVEGGSSDKNTEDFATSLINFAETFQFSC
notes: as for B1
B9: LuUGT74S1 (Linum usitatissimum; S115F) (protein)
chain: MAGDEREKAHCLVVPAAAQGHFTPLLQFSKRLIPKRIRVTLALTRFIHSTMTVTAQSGIHIDTISDGFDHSGLILQDPEHYSQTFRRVGSETLTDLIRKQSESRHPVHCIIYDAFMPWFLDVAKRFGIVGAAFLTQSCAVNAIYYHLREGTIKRPVVSDPAAGTLVIDGLPPLEVSDLPSFIWDDLHTEFLAAHLRQFSNDGADWVFCNTVYQLELEAVDWLTKQWLINFRTIGPTIPSFYLDKQIPDDKDYDISIFNPQNQTCMNWLQSKPDGSVVYVSFGSLARLSPQQTEELYFGLKNSNHYFLWVVRESEVAKLPKEEYLSGEKGLVVSWCSQLQVLASGKVGCFVTHCGWNSTLEALSLGVPMVAMPECGDQLTNAKFIKDVWKTGVRAEADDGKGIMWGMIKREVIERCIREVMEGEETRRNADKWGKIIKEAVVEGGSSDKNTEDFATSLINFAETFQFSC
notes: as for B1

Substrate: COc1cc(C[C@@H](CO)[C@H](CO)Cc2ccc(O)c(OC)c2)ccc1O
Test: UDP-Glo glycosyltransferase assay (UDP release), Michaelis-Menten fit
Format: biochemical, Linum usitatissimum
Conditions: apparent, UDP-glucose 1.64 mM constant (general assay text says 100 μM), 50 mM phosphate pH 8, 30 °C, 30 min, total of mono- and diglucosylation
Description: UDP-Glo glycosyltransferase assay (UDP release), Michaelis-Menten fit on LuUGT74S1

Protein | Km [µM] | Vmax [µmol/min/mg] | kcat [s⁻¹] | kcat/Km [M⁻¹ s⁻¹]
B1 | 122 ± 12 | 0.384 | 0.34 ± 0.06 | 3000
B2 | 165 ± 9 | 0.324 | 0.29 ± 0.04 | 2000
B3 | 75 ± 1 | 1.02 | 0.92 ± 0.71 | 12000
B4 | 69 ± 2 | 0.858 | 0.75 ± 0.02 | 11000
B5 | 68 ± 1 | 0.75 | 0.56 ± 0.45 | 8000
B6 | 72 ± 1 | 0.9 | 0.75 ± 0.02 | 10000
B7 | 70 ± 2 | 0.894 | 0.76 ± 0.08 | 11000
B8 | 74 ± 1 | 0.948 | 0.8 ± 0.01 | 11000
B9 | 75 ± 1 | 0.834 | 0.77 ± 0.02 | 10000

Reference: article PMC11403609, “Kinetics of Secoisolariciresinol Glucosyltransferase LuUGT74S1 and Its Mutants” (Journal of Agricultural and Food Chemistry, 2024)
